The record followed here is patent US6596504B2, “Treatment of prophylaxis of diseases caused by pilus-forming bacteria” (Washington University, priority 1993, dated 2003).

Experiment [1] concerns the target T1, PapD (Escherichia coli, UniProt P15319).
T1 construct: (A) NAME/KEY: mat_; made in house; Lindberg et al. 1989
T1 sequence (P15319 22-239): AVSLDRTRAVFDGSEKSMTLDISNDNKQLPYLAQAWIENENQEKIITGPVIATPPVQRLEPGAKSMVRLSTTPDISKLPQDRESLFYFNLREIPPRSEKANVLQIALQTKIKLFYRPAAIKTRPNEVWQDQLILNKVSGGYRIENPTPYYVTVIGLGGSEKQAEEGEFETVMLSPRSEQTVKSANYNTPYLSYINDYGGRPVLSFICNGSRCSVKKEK
The experiment can be described thus: ELISA: PapD binding to immobilized second site peptides of PapG. Set-up: species or system E. coli. The conditions noted are these: peptide coated on wells, 200 pmol PapD. As for the experimental part: Four synthetic peptides overlapping the PapG region from residue 156′ to 120′ (indicated in FIG. 20) were coated to wells of microtiter plates. The concentration of each peptide in the wells is indicated. Binding of 200 pmol/[…] of PapD to the immobilized peptide was determined by ELISA using anti-PapD antiserum.
For assaying the second site peptides, all the peptides were dissolved in dimethyl sulfoxide (DMSO, Sigma, St. Louis, Mo., USA) to a final concentration 2 mM. The stock solutions were diluted to a proper concentration in PBS and coated overnight on microtiter wells at 4° C. All the peptide solutions were adjusted to the same DMSO concentration. The subsequent steps followed the procedure described above.
For orientation: An ELISA detects its analyte on a solid surface through an enzyme-linked reagent.

The target of experiment [2] is T1, PapD. Kind of experiment: In vitro complex formation of PapD with MBP/G fusion proteins on silver stained IEF gel. Format: binding, E. coli. The procedure:
(A) PapD was incubated with 1 μg of amylose affinity purified MBP (lane), MBP-G1′-19′ (lane 2), MBP-G1′-81′ (lane 3), or MBP-G1′-140′ (lane 4) and complex formation was evaluated on the silver stained IEF gel. Positions of MBP/G fusions, PapD and the PapD-MBP-G1′-140′ complex are indicated.
The interaction between PapD and MBP/G fusion in vitro was assayed by incubating purified PapD (1 μg) and amylose bead affinity purified MBP/G fusion protein (1 μg) in 4 μl PBS for 30 minutes and then applied to IEF (pI 3-9), followed by silver staining. Another in vitro assay that is more quantitative is the ELISA described below.

The target of experiment [3] is T1, PapD. The experiment can be described thus: ELISA: PapD binding to immobilized MBP/G fusion proteins. Set-up: species or system E. coli. The conditions noted are these: 50 pmol PapD. As for the experimental part:
(B) Amylose affinity purified NBP/G fusion proteins were coated to wells of microtiter plates. The concentration of the MBP/G proteins in the wells is indicated. Binding of 50 pmol/[…] of PapD to the immobilized proteins was determined by ELISA using anti-PapD antiserum.
Stock solutions of MBP/G fusion proteins in PBS were diluted to 40 pmol/50 μl with PBS. The solutions of the 40 pmol/50 μl MBP/G fusion proteins were serially diluted in PBS and 50 μl of each solution were used to coat the wells of a 96-well Nunc Immunoplate (Inter Med, DK-4000 Roskilde, Denmark) overnight at 4° C. The wells were then washed with PBS and blocked with 200 μl of […] in PBS for 2 hours at 25° C. The plates were washed vigorously three times with PBS and incubated with 50 μl of PapD diluted at 50 pmol PapD in 50 μl 3% BSA-PBS for 45 minutes at 25° C. After three washings with PBS, the wells were incubated with a 1:500 dilution of rabbit anti-PapD antiserum in 3% BSA-PBS for 45 minutes at 25° C. After three washings with PBS, the wells were incubated with a 1:1000 dilution of goat antiserum to rabbit IgG coupled to alkaline phosphatase in 3% BSA-PBS for 45 minutes at 25° C. […] The reaction was incubated for 1 hour in the dark at 25° C. and the absorbance at 405 nm was read.

The target of experiment [4] is T1, PapD. The experiment can be described thus: PapD-MBP/G interactions in vivo: co-elution of PapD on amylose affinity chromatography. Type of experiment: binding, E. coli. The procedure: Strains carrying MBP or MBP/G fusion gene plasmids were induced in LB broth culture with 1 mM isopropylthiogalactoside (IPTG). Periplasmic extracts were prepared as described (Slonim et al., 1992). One tenth volume of 10×phosphate-buffered saline (PBS, 120 mM NaCl, 2.7 mM KCl, 10 mM Na2HPO4 and 2 mM KH2PO4, pH 7.4) was added to the periplasmic extract. Amylose resin was then added to the periplasmic extracts at a 1:5 ratio. The mixture was rocked at 4° C. overnight and the beads were subsequently washed 5 times with PBS. MBP or MBP/G fusion proteins were eluted with 20 mM maltose in PBS by rocking at 4° C. for an hour. Protein concentrations were determined using the Bio-Rad DC protein assay kit (Bio-Rad Laboratories, Hercules, Calif., USA). The full length fusion protein concentration was further quantitated by the Coomassie stained SDS-PAGE gel with known concentrations of bovine albumin (BSA) as the standards followed by densitometry scanning. […]
The ability of PapD to bind to the MBP/G fusions was investigated using amylose affinity chromatography (Kellermann and Ferenci, 1982). […] Periplasmic extracts from each strain containing the MBP/G proteins and PapD were subjected to amylose affinity chromatography and the eluates analyzed by SDS-PAGE (FIG. 21A) and by western blotting with anti-PapD antisera (FIG. 21B). […]

Experiment [5] has as its system HB101/pFJ3. Kind of experiment: Pili preparation and quantitation on co-expression of MBP/G fusions. Format: cell-based, E. coli. The procedure: The cells obtained from TSA plates were collected. Pili were prepared from the same amounts of cells using the procedure described previously (Jacob-Dubuisson, et al., 1993b). These pili preparations were boiled in Lammeli sample buffer with 4 M urea, then analyzed on Coomassie blue stained SDS polyacrylamide gels. The relative amount of piliation was quantified by densitometric scanning of the PapA bands.

In experiment [6] the test system is HB101/pFJ3. The experiment can be described thus: Hemagglutination titer on co-expression of MBP/G fusions with the pap operon. Type of experiment: cell-based, E. coli. As for the experimental part:
HB101/pFJ3 harbouring various MBP/G fusion plasmids was passaged on Trypticase Soy Agar (TSA, Becton Dickinson, Cockeysville, Md., USA) three times to induce P-pili expression. At the last passage, the expression of MBP/G fusions was induced on TSA containing 100 μM IPTG. The cells from different strains were then collected and the HA titers were determined as described (Jacob-Dubuisson et al., 1993b).
PapD is essential for P-pilus assembly (Hultgren et al., 1991). […] The ability of the MBP/G fusions to block pilus formation by inhibiting chaperone-subunit complex formation when co-expressed in trans with the pap operon was tested. Plasmids pMAL-p4, pMAL/G1′-19′, pMAL/G1′-81′ and pMAL/G1′-140′ were transformed into the strain HB101/pFJ3 which contains the pap operon under the control of its own promoter in the vector pACYC184 (Jacob-Dubuisson et al. 1993b). Each MBP/G fusion protein was localized in the periplasm as determined by SDS-PAGE and western blotting with anti-MBP antisera (data not shown). Hemagglutination (HA) assays were performed on the cells co-expressing the pap operon with either MBP (pMAL-p4) or with each of the MBP/G fusions. Co-expression of the MBP/G1′-140′ fusions with the pap operon decreased the HA titer 30 fold compared to the MBP control (see table 3).

In experiment [7] the target is T1, PapD. Kind of experiment: PapD complex formation with PapG truncates (acidic native gel, western blotting). Type of experiment: binding, E. coli. Conditions: co-expressed in KS474. The procedure: Periplasm containing PapD and PapG, PapG2 or PapG3 (lane 2, 3 and 4 respectively) were subjected to Gal α(1-4) Gal chromatography and eth eluates were analyzed on acidic native gel electrophoresis following western blotting using anti-PapD (A) and anti-PapG (B) antisera. Purified PapD-PapG complex was loaded-in lane 1.
PapD and the PapG-truncates were co-expressed in KS474, the truncates were induced at OD600 0.6 with 0.5 mM IPTG and PapD under the control of the arabinose promoter was induced with 0.2% arabinose. After one hour induction, periplasmic extracts were prepared and rocked with Gal α(1-4) Gal beads overnight at 4° C. and eluted with 15 μg/ml Gal α(1-4) Gal-TMSET solution as described previously (Hultgren et al., 1989; Kuehn et al., 1991). The eluates were analyzed by acidic native gel eletrophoresis (Striker et al., 1994) followed by western blotting using anti-PapD and anti-PapG antiserum.
(A western blot detects proteins with antibodies after separation by electrophoresis.)

A further experiment has as its target T2, G1′-19′WT peptide (Escherichia coli, UniProt P13720).
T2 construct: G1′-19′ denotes the 19 C-terminal amino acid residues of PapG; made in house; host or cells: synthetic peptide
The experiment can be described thus: Native polyacrylamide gel mobility shift of PapD (wild type and mutants) with G1′-19′WT peptide. Format: binding, E. coli. The conditions noted are these: native-PAGE assay. The text has this:
The ability of the mutant chaperones to bind pilus subunits and modulate pilus assembly in vivo was correlated to their ability to bind to the G1′-19′WT peptide and to PapG in vitro. […] Similarly, mutations in Arg-8 and Lys-112 abolished the ability of PapD to bind to PapG and reconstitute the PapD-PapG complex in vitro (FIG. 7) and to bind to pilus subunits and mediate pilus assembly in vivo (cf. table 2).

“G125′-140′: peptide of C-terminal amino acid residues 125′ to 140′ of PapG, SEQ ID NO: 20 (DQIKQLPATNTLMLSF)”: the “binding to PapD in ELISA” value with PapD [1] was “bound to PapD”.
For the molecule “MBP/G1′-19′: fusion of maltose binding protein and COOH-terminal residues 1′-19′ of PapG”, the “complex formation with PapD in vitro” value in the experiment with PapD [2] was “no complexes”. Further, the “PapD binding to immobilized fusion protein” value with PapD [3] was “weakly”. For the same molecule, in the experiment with PapD [4] (co-expressed, SDS-PAGE and western blot of eluates), the “interaction of PapD with MBP/G protein in vivo (co-elution)” value is “only weakly”. Also, in the experiment with PapD [4] (silver stained IEF gel), the “stable complexes with PapD in the eluates” value is listed as “not possible to detect stable complexes”. In addition, the “reduction of the amount of pili compared to MBP alone” value in the experiment with HB101/pFJ3 [5] (co-expression with pap operon) is on record as “about 50%”. In the experiment on HB101/pFJ3 [5] (densitometry of PapA bands, control HB101/pFJ3/pMAL-p4 = 100%), the Pilation percentage turned out to be 50%. The “inhibition of pilus assembly” value with HB101/pFJ3 [5] (expression in cells producing P pili) is “weak inhibitors”. Further, the effect on hemagglutination result with HB101/pFJ3 [6] (co-expression in strains producing P pili) is reported as “only weak effects on the HA titer”. The HA titer with HB101/pFJ3 [6] (highest dilution of cell suspension yielding detectable HA, co-expression with pap operon) amounted to 64.

B1: full-length PapG: P pilus tip adhesin PapG (protein)
chain: GWHNVMFYAFNDYLTTNAGNVKVIDQPQLYIPWNTGSATATYYSCSGPEFASGVYFQEYLAWMVVPKHVYTNEGFNIFLDVQSKYGWSMENENDKDFYFFVNGYEWDTWTNNGARICFYPGNMKQLNNKFNDLVFRVLLPVDLPKGHYNFPVRYIRGIQHHYYDLWQDHYKMPYDQIKQLPATNTLMLSFDNVGGCQPSTQVLNIDHGSIVIDRANGNIASQTLSIYCDVPVSVKISLLRNTPPIYNNNKFSVGLGNGWDSIISLDGVEQSEEILRWYTAGSKTVKIESRLYGEEGKRKPGELSGSMTMVLSFP
Turning to B1, in the experiment with PapD [7], the “complex formation with PapD” value is listed as “formed a complex”.

B2: wild type PapD: periplasmic chaperone PapD of E. coli, wild type (protein, UniProt P15319 22-239, looked up)
Chaperone protein PapD: T1 sequence (P15319 22-239)
B2: the “mobility shift on incubation with G1′-19′WT peptide” value in the experiment with G1′-19′WT peptide is listed as “cause a mobility shift”.
